Assay results published in publication PMC8643669 (Nucleic Acids Research, 2021).

B1: FLAG-SRP54 full-length (p3×FLAG-SRP54-FL) (natural protein)
chain: MVLADLGRKITSALRSLSNATIINEEVLNAMLKEVCTALLEADVNIKLVKQLRENVKSAIDLEEMASGLNKRKMIQHAVFKELVKLVDPGVKAWTPTKGKQNVIMFVGLQGSGKTTTCSKLAYYYQRKGWKTCLICADTFRAGAFDQLKQNATKARIPFYGSYTEMDPVIIASEGVEKFKNENFEIIIVDTSGRHKQEDSLFEEMLQVANAIQPDNIVYVMDASIGQACEAQAKAFKDKVDVASVIVTKLDGHAKGGGALSAVAATKSPIIFIGTGEHIDDFEPFKTQPFISKLLGMGDIEGLIDKVNELKLDDNEALIEKLKHGQFTLRDMYEQFQNIMKMGPFSQILGMIPGFGTDFMSKGNEQESMARLKKLMTIMDSMNDQELDSTDGAKVFSKQPGRIQRVARGSGVSTRDVQELLTQYTKFAQMVKKMGGIKGLFKGGDMSKNVSQSQMAKLNQQMAKMMDPRVLHHMGGMAGLQSMMRQFQQGAAGNMKGMMGFNNM
B2: purified recombinant FLAG-SRP54-NG (residues 1-293) (domain or fragment)
chain: MVLADLGRKITSALRSLSNATIINEEVLNAMLKEVCTALLEADVNIKLVKQLRENVKSAIDLEEMASGLNKRKMIQHAVFKELVKLVDPGVKAWTPTKGKQNVIMFVGLQGSGKTTTCSKLAYYYQRKGWKTCLICADTFRAGAFDQLKQNATKARIPFYGSYTEMDPVIIASEGVEKFKNENFEIIIVDTSGRHKQEDSLFEEMLQVANAIQPDNIVYVMDASIGQACEAQAKAFKDKVDVASVIVTKLDGHAKGGGALSAVAATKSPIIFIGTGEHIDDFEPFKTQPFISK

Key:
[1] = target: T1, CBP80, subunit of the purified recombinant CBC (human, UniProt Q09161 1-790); assay: far-Western, overlay or dot blot
T1 sequence: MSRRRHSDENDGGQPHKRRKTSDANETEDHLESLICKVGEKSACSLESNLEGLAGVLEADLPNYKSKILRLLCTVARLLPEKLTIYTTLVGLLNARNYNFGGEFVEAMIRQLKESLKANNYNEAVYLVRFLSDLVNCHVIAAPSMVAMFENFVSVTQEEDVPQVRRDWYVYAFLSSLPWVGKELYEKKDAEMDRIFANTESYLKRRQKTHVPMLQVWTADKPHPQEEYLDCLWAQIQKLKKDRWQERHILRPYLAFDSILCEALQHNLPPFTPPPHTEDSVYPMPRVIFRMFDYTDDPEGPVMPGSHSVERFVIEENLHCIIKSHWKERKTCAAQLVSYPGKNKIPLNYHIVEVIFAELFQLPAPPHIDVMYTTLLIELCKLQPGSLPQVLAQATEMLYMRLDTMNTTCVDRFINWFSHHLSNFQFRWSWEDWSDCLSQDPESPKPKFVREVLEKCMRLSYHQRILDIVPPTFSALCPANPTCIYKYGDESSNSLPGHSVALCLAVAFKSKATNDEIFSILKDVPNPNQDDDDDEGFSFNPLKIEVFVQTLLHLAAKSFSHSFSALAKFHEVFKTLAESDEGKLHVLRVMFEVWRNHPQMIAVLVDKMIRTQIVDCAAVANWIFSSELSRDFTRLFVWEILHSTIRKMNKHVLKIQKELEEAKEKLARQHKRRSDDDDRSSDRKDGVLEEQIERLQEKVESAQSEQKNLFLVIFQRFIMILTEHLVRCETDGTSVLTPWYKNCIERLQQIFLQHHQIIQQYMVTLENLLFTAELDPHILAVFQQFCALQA

[2] = target: T2, purified recombinant nuclear cap-binding complex (CBC; heterodimer of CBP80 and CBP20) (human, UniProt Q09161;P52298); assay: pull-down
T2 sequence 1: T1 sequence
T2 sequence 2: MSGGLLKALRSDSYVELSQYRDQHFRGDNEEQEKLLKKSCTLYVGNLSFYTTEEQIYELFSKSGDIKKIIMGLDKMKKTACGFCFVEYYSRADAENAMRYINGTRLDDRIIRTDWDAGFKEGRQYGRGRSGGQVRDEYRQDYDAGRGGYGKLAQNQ

Row | Binder | binding result [1] | binding result [2]
1 | B1 | binds | –
2 | B2 | – | binds
